Entries after “also recorded” stand apart in the source; their conditions may differ. Marks after values point to notes of the source that are not given here.
Legend:
[1] = molecular target: T1, CBF1/RBPJk (Homo sapiens, UniProt Q06330); assay: EMSA of EBNA2/CBF1 complex formation with in vitro translated EBNA2 peptides; assay type: binding; settings: for behaviour in EMSA (competition for CBF1 complex, formation of supershifted EBNA2/CBF1 complex): equimolar in vitro translated peptides, Cp CBF1 binding site probe
T1 construct: EMSA using CBF1 purified by heparin-agarose chromatography; endogenous in cells; host or cells: CA46 cells (fractionated extract, heparin-agarose)
T1 sequence (Q06330 whole entry): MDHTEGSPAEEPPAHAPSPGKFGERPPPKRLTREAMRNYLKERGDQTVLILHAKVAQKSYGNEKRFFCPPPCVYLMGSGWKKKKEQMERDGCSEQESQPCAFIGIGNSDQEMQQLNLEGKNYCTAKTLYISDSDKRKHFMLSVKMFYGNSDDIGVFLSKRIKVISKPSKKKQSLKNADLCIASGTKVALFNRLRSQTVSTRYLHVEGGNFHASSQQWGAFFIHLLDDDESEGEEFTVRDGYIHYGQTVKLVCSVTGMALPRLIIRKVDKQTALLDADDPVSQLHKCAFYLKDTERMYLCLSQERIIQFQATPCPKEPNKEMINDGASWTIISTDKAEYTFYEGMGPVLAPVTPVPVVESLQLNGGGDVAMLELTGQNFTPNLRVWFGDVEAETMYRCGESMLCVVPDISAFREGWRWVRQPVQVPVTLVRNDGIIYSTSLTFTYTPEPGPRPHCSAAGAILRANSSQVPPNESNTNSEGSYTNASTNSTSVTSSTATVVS
Text: FIG. 3 is an autoradiogram that depicts the effect of mutations on the ability of an EBNA2 (i.e., E2) peptide comprising amino acids 252-425 to interact with CBF1/RBPJk: probe (lane 1); E2 only (lane 2); lysate (lane 3); CBF1 (lane 4); CBF1 and lysate (lane 5); CBF1 and E2 252-425 (lane 6); CBF1 and del376-425 (lane 7); CBF1 and del343-425 (lane 8); CBF1 and del252-366 (lane 9); CBF1 and del252-309, del398-425 (lane 10); CBF1 and del344-357 (lane 11); CBF1 and II307SR (CR5) (lane 12); CBF1 and GP320SR (CR6) (lane 13); CBF1 and WW323SR (CR6) (lane 14); CBF1 and PI326SR (CR6) (lane 15); CBF1 and SR360VD (PKC) (lane 16); and CBF1 and LGL389SRT (CR7) (lane 17). Results of an EMSA using CBF1 purified by heparin-agarose chromatography and a 30-base pair oligonucleotide probe containing the Cp CBF1 binding site (Ling et al. (1993a), supra) are shown. The wild-type EBNA2 and mutant EBNA2 peptides spanning amino acids 252-425 were in vitro transcribed and translated, and equimolar amounts were added to the binding reactions. Addition of unprogrammed reticulocyte lysate to the CBF1 extract (+lysate) produced a minor bandshift that migrated in the range of the E2/CBF1 complex. The EBNA2/CBF1 complexes (i.e., E2/CBF1 complexes) vary in mobility depending on the size of the added EBNA2 peptide.
FIG. 6 is an EMSA that compares the ability of type A EBNA2 (i.e., EBNA2 comprising amino acids 252-425) and the homologous domains of type B (i.e., EBNA2 comprising amino acids 216-392) and HVP EBNA2 (i.e., HBP EBNA2 comprising amino acids 288-470) to form complexes with CBF1/RBPJk. The EBNA2 peptides and CBF1/RPBPJk were prepared by in vitro transcription and translation. EBNA2 peptides were added with two-fold increases in amount (black triangles) to a binding mixture containing a constant amount of CBF1/RBPJk and a 30-base pair Cp CBF1 binding site probe. Symbols: P, probe only; R, reticulolysate.
The relative positions of the various functional domains the EBNA2 protein are depicted in FIG. 1. To define the amino acids required for interaction with CBF1, various synthetic peptides comprising the promoter targeting domain (i.e., the CBF1/RBPJk interaction domain) were constructed. The truncated and mutated peptides diagrammed in FIG. 2 were synthesized by in vitro transcription-translation, and were tested for their ability to form complexes with CBF1 that could be detected in an electrophoretic mobility shift assay (EMSA) (Ling et al., J. Virol., 69, 1944-1950 (1995)). The expressed peptides were tested using a fractionated extract of EBV negative lymphoblastoid CA46 cells (American Type Culture Collection, Rockville, Md.). The peptides were labeled with ^35S-methionine, and their integrity was confirmed by sodium dodecylsulfate sulfate-polyacrylamide gel electrophoresis (SDS-PAGE). To ensure that equal amounts of the EBNA2 peptides were added to each binding reaction mixture, the SDS-PAGE bands were quantitated using a Molecular Dynamics Phosphorimager, and the volume of the samples was adjusted on the basis of peptide size and the number of methionine residues.

[2] = tested on: EBV latency C promoter (Cp-CAT); assay: Cp-CAT transactivation by EBNA2 effector DNAs cotransfected in DG75 cells; assay type: cell-based, Epstein-Barr virus; settings: for transactivation of Cp-CAT, dose-response, in words: 0-2.0 μg effector DNA, 2 μg target; for % Transactivation: relative EBNA2 transactivation of the Cp, at DNA concentrations giving 50% acetylation for wild-type EBNA2, mutations in full-length EBNA2
Description: FIGS. 4A-4B are graphs that depict μg effector versus % acetylation for transactivation in DG75 cells of a Cp-CAT construction (Ling et al. (1993b), supra) cotransfected at 2 μg with increasing amounts (i.e., 0, 0.25, 0.5, 1.0 and 2.0 μg) of the indicated EBNA2 effector DNAs. Immunoblot analysis confirmed the equivalent expression of the different EBNA2 effector constructions in transfected cells.
FIGS. 7A-7B are graphs that depict μg effector versus fold-induction for cotransfection assays comparing the ability of type A EBNA2 and type B EBNA2 to transactivate expression from Cp-CAT (FIG. 7A) and CD23p-CAT (FIG. 7B) (Ling et al. (1994), supra) in DG75 cells. The target plasmids were transfected at a constant amount (2 μg) and the effector DNAs at increasing amounts of 0, 0.25, 0.5, 1.0 and 2.0 μg.
In order to correlate the effect of the mutations on CBF1 interaction measured in the in vitro binding assays with the effects on CBF1 interaction in vivo in cultured cells, the point mutations and the glycine-arginine deletion were incorporated into full-length EBNA2 proteins which were used to study EBNA2 targeting in transactivation assays. The mutant proteins were synthesized in equal abundance in transfected cells as assessed by Western blot analysis. FIGS. 4A and 4B compare the ability of wild-type and mutant EBNA2 proteins to transactivate expression from the EBV latency C promoter in a dose-response assay (Ling et al. (1993b), supra).

[3] = linear range of the assay, 0.5 μg effector DNA

Molecule | behaviour in EMSA (competition for CBF1 complex, formation of supershifted EBNA2/CBF1 complex) [1] | transactivation of Cp-CAT, dose-response, in words [2] | % Transactivation [2] | transactivation of Cp-CAT relative to wild-type EBNA2 ([2]; highest levels of effector DNA) [%] | transactivation of Cp-CAT relative to wild-type EBNA2 [2, 3] [%] | % Complex formation ([1]; EBNA2/CBF1 supershifted complex relative to wild-type EBNA2(252-425), phosphoimager, reticulocyte lysate background subtracted) [%] | behaviour in EMSA (competition for CBF1 complex, formation of supershifted EBNA2/CBF1 complex) ([1]; listed as glycine-arginine deletion) | amount of peptide required to convert all the CBF1 to the supershifted complex, versus type A EBNA2 ([1]; in vitro translated CBF1/RBPJk, two-fold increases of peptide)
WW323SR (CR6): EBNA2 with tryptophans 323 and 324 in CR6 changed to SR (protein) MPTFYLALHGGQTYHLIVDTDSLGNPSLSVIPSNPYQEQLSDTPLIPLTIFVGENTGVPPPLPPPPPPPPPPPPPPPPPPPPPPPPPPSPPPPPPPPPPPQRRDAWTQEPSPLDRDPLGYDVGHGPLASAMRMLWMANYIVRQSRGDRGLILPQGPQTAPQARLVQPHVPPLRPTAPTILSPLSQPRLTPPQPLMMPPRPTPPTPLPPATLTVPPRPTRPTTLPPTPLLTVLQRPTELQPTPSPPRMHLPVLHVPDQSMHPLTHQSTPNDPDSPEPRSPTVFYNIPPMPLPPSQLPPPAAPAQPPPGVINDQQLHHLPSGPPSRPPICDPPQPSKTQGQSRGQSRGRGRGRGRGRGKGKSRDKQRKPGGPWRPEPNTSSPSMPELSPVLGLHQGQGAGDSPTPGPSNAAPVCRNSHTATPNVSPIHEPESHNSPEAPILFPDDWYPPSIDPADLDESWDYIFETTESPSSDEDYVEGPSKRPRPSIQ | did not compete for the CBF1 complex and produced little or no EBNA2/CBF1 supershifted complex | inability of this mutant to transactivate the Cp even at high doses of effector | 0% |  |  |  |  | 
GP320SR (CR6): EBNA2 with two non-hydrophobic residues GP at 320 in CR6 changed to SR (protein) MPTFYLALHGGQTYHLIVDTDSLGNPSLSVIPSNPYQEQLSDTPLIPLTIFVGENTGVPPPLPPPPPPPPPPPPPPPPPPPPPPPPPPSPPPPPPPPPPPQRRDAWTQEPSPLDRDPLGYDVGHGPLASAMRMLWMANYIVRQSRGDRGLILPQGPQTAPQARLVQPHVPPLRPTAPTILSPLSQPRLTPPQPLMMPPRPTPPTPLPPATLTVPPRPTRPTTLPPTPLLTVLQRPTELQPTPSPPRMHLPVLHVPDQSMHPLTHQSTPNDPDSPEPRSPTVFYNIPPMPLPPSQLPPPAAPAQPPPGVINDQQLHHLPSSRPWWPPICDPPQPSKTQGQSRGQSRGRGRGRGRGRGKGKSRDKQRKPGGPWRPEPNTSSPSMPELSPVLGLHQGQGAGDSPTPGPSNAAPVCRNSHTATPNVSPIHEPESHNSPEAPILFPDDWYPPSIDPADLDESWDYIFETTESPSSDEDYVEGPSKRPRPSIQ | had no effect on the behavior of the peptide in the EMSA | mirrored that of wild-type EBNA2 | 120% |  |  |  |  | 
PI326SR (CR6): EBNA2 with PI at 326 in CR6 changed to SR (protein) MPTFYLALHGGQTYHLIVDTDSLGNPSLSVIPSNPYQEQLSDTPLIPLTIFVGENTGVPPPLPPPPPPPPPPPPPPPPPPPPPPPPPPSPPPPPPPPPPPQRRDAWTQEPSPLDRDPLGYDVGHGPLASAMRMLWMANYIVRQSRGDRGLILPQGPQTAPQARLVQPHVPPLRPTAPTILSPLSQPRLTPPQPLMMPPRPTPPTPLPPATLTVPPRPTRPTTLPPTPLLTVLQRPTELQPTPSPPRMHLPVLHVPDQSMHPLTHQSTPNDPDSPEPRSPTVFYNIPPMPLPPSQLPPPAAPAQPPPGVINDQQLHHLPSGPPWWPSRCDPPQPSKTQGQSRGQSRGRGRGRGRGRGKGKSRDKQRKPGGPWRPEPNTSSPSMPELSPVLGLHQGQGAGDSPTPGPSNAAPVCRNSHTATPNVSPIHEPESHNSPEAPILFPDDWYPPSIDPADLDESWDYIFETTESPSSDEDYVEGPSKRPRPSIQ | did not compete for the CBF1 complex and produced little or no EBNA2/CBF1 supershifted complex; also recorded: severely impaired the ability of the peptide to form a complex with CBF1 in an EMSA |  | 2^c % | 20 | 2 |  |  | 
del344-357: EBNA2 with glycine-arginine repeats removed by deletion of amino acids 344-357 (protein) MPTFYLALHGGQTYHLIVDTDSLGNPSLSVIPSNPYQEQLSDTPLIPLTIFVGENTGVPPPLPPPPPPPPPPPPPPPPPPPPPPPPPPSPPPPPPPPPPPQRRDAWTQEPSPLDRDPLGYDVGHGPLASAMRMLWMANYIVRQSRGDRGLILPQGPQTAPQARLVQPHVPPLRPTAPTILSPLSQPRLTPPQPLMMPPRPTPPTPLPPATLTVPPRPTRPTTLPPTPLLTVLQRPTELQPTPSPPRMHLPVLHVPDQSMHPLTHQSTPNDPDSPEPRSPTVFYNIPPMPLPPSQLPPPAAPAQPPPGVINDQQLHHLPSGPPWWPPICDPPQPSKTQGQSRGQGKSRDKQRKPGGPWRPEPNTSSPSMPELSPVLGLHQGQGAGDSPTPGPSNAAPVCRNSHTATPNVSPIHEPESHNSPEAPILFPDDWYPPSIDPADLDESWDYIFETTESPSSDEDYVEGPSKRPRPSIQ | did not negatively affect EBNA2/CBF1 complex formation |  | 150% |  | 150 | 100 | did not negatively affect complex formation in the EMSA | 
type B EBNA2 comprising amino acids 216-392: homologous CBF1 interaction domain of human type B EBNA2, in vitro translated (protein) GHQLSLPPHPPPHQSTPHCSSDSTGLPPPPTSYSIPSMTLSPEPLPPPAAPAHPLPGVIYDQQALPPTPGPPWWPPVRDPTPTTQTPPTNTKQGPDQGQGRGRWRGRGRSKGRGRMHKLPEPRRPGPDTSSPSMPQLSPVVSLHQGQGPENSPTPGPSTAGPVCRVTPSATPDISPI | bound CBF1 comparably to type A EBNA2 |  |  |  |  |  |  | two-fold more
